Source: patent US20080058263A1 (published 2008)

What was measured:
Assay in all cases: receptor-Fc IP
VEGFR-1-Fc = target: T1, VEGFR-1-Fc (UniProt P17948 27-338)
T1 construct: domain: first three Ig domains; expressed in Drosophila S2 cells, purified on Protein A sepharose; also called VEGFR-1-Fc fusion protein; not shown: Fc fragment from the Signal-pIgPlus vector
In short: (§1)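 Binding of ligand from sample supernatant measured by pentahistidine-antibody immunoprecipitation. IP mix: PBS with 1.5% BSA, 0.06% Tween 20, 3 μg/ml heparin and 400 ng/ml fusion protein, added 1:2 to sample supernatant.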

VEGFR-2-Fc = target: T2, VEGFR-2-Fc (UniProt P35968 20-322)
T2 construct: domain: first 3 Ig domains; conditioned supernatant of 293T cells; also called VEGFR-2-Fc fusion protein; not shown: Fc fragment of the pIg vector
In short: as §1

VEGFR-3-Fc = target: T3, VEGFR-3-Fc (UniProt P35916 25-328)
T3 construct: domain: first three Ig domains; conditioned supernatant of 293T cells; also called VEGFR-3-Fc fusion protein; not shown: Fc fragment of the pIg vector
T3 sequence (looked up): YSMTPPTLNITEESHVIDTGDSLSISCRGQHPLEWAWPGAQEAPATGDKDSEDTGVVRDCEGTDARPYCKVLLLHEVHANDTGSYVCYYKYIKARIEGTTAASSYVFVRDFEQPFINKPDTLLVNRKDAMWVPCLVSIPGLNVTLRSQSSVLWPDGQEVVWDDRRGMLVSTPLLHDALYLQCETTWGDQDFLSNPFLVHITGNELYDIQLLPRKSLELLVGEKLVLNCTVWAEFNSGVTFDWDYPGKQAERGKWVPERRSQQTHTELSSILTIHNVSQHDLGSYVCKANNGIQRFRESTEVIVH
In short: as §1

T2 sequence (P35968 20-322): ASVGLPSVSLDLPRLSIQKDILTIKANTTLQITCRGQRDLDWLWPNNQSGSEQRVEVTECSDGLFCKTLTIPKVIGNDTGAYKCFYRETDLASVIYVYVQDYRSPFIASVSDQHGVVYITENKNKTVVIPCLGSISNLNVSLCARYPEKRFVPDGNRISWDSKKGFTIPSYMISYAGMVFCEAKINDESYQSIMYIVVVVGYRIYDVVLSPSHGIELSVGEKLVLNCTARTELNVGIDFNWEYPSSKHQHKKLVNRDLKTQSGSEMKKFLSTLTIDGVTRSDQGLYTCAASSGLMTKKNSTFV
T1 sequence (P17948 27-338): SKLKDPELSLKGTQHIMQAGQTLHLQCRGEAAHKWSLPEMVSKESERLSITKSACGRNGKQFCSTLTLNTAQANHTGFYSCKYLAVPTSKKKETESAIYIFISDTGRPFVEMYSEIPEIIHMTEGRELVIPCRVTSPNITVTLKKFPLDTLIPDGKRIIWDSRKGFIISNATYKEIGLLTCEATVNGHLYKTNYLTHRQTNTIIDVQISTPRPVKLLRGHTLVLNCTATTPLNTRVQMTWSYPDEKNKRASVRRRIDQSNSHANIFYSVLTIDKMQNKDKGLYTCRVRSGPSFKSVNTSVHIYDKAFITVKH

B1: 63-8 (ligand)
chain: GQNHHEVVKFMDVYQRSYCHPREVCIDVGKEYPDEIEYIFKPPCVSVYRCGGCCNSEGLQCMNTSTSYLSKTLFEIKPHQGQHIGEMSFANHTSCRCMSKLD
- binding result (VEGFR-1-Fc): no binding
- binding result (VEGFR-2-Fc): no binding
- binding result (VEGFR-3-Fc): no binding

B2: 13-6 (ligand)
chain: GQNHHEVVKFMDVYQRSYCHPIETLVDIFQEYPDEIEYIFKPPCVSVYRCGGCCNDEGLECMNTSTSYLSKTLFEIKPHQGQHIGEMSFANHTSCRCMSKLD
- binding result (VEGFR-1-Fc): no binding
- binding result (VEGFR-2-Fc): no binding
- binding result (VEGFR-3-Fc): no binding

B3: 32-14 (ligand)
chain: GQNHHEVVKSIDNEWRKTQCMPIETLVDIFQEFGVATNTFFKPPCVSVYRCGGCCNDEGLECMNTSTSYLSKTLFEITVPLSQGPKPVTISFANHTSCRCMSKLD
notes: clone entry
- binding result (VEGFR-1-Fc): no binding
- binding result (VEGFR-2-Fc): no binding
- binding result (VEGFR-3-Fc): binds

B4: 32-16 (ligand)
chain: GQNHHEVVKSIDNEWRKTQCMPIETLVDIFQEFGVATNTFFKPPCVSVYRCGGCCNSEGLQCMNTSTSYLSKTLFEITVPLSQGPKPVTISFANHTSCRCMSKLD
- binding result (VEGFR-1-Fc): no binding
- binding result (VEGFR-2-Fc): no binding
- binding result (VEGFR-3-Fc): binds

B5: 53-1 (ligand)
chain: AHYNTEILKSIDNEWRKTQCMPIETLVDIFQEYPDEIEYIFKPPCVSVYRCGGCCNDEGLECVPTEESNITMQIMRIKPHQGQHIGEMSFLQHNKCECRPKKD
- binding result (VEGFR-1-Fc): no binding
- binding result (VEGFR-2-Fc): binds
- binding result (VEGFR-3-Fc): no binding

B6: 53-7 (ligand)
chain: AHYNTEILKSIDNEWRKTQCMPIETLVDIFQEYPDEIEYIFKPPCVSVYRCGGCCNSEGLQCVPTEESNITMQIMRIKPHQGQHIGEMSFANHTSCRCMSKLD
- binding result (VEGFR-1-Fc): no binding
- binding result (VEGFR-2-Fc): binds
- binding result (VEGFR-3-Fc): no binding

B7: 62-1 (ligand)
chain: GQNHHEVVKFMDVYQRSYCHPREVCIDVGKEFGVATNTFFKPPCVSVYRCGGCCNDEGLECVPTEESNITMQIMRIKPHQGQHIGEMSFLQHNKCECRPKKD
- binding result (VEGFR-1-Fc): binds
- binding result (VEGFR-2-Fc): no binding
- binding result (VEGFR-3-Fc): no binding

B8: 72-9 (ligand)
chain: GQNHHEVVKSIDNEWRKTQCMPREVCIDVGKEFGVATNTFFKPPCVSVYRCGGCCNDEGLECVPTEESNITMQIMRITVPLSQGPKPVTISFLQHNKCECRPKKD
- binding result (VEGFR-1-Fc): no binding
- binding result (VEGFR-2-Fc): no binding
- binding result (VEGFR-3-Fc): no binding

B9: 72-15 (ligand)
chain: GQNHHEVVKSIDNEWRKTQCMPREVCIDVGKEFGVATNTFFKPPCVSVYRCGGCCNSEGLQCVPTEESNITMQIMRITVPLSQGPKPVTISFANHTSCRCMSKLD
- binding result (VEGFR-1-Fc): no binding
- binding result (VEGFR-2-Fc): no binding
- binding result (VEGFR-3-Fc): no binding

B10: 32-11 (ligand)
chain: GQNHHEVVKSIDNEWRKTQCMPIETLVDIFQEFGVATNTFFKPPCVSVYRCGGCCNSEGLQCVPTEESNITMQIMRITVPLSQGPKPVTISFLQHNKCECRPKKD
- binding result (VEGFR-1-Fc): no binding
- binding result (VEGFR-2-Fc): no binding
- binding result (VEGFR-3-Fc): binds

B11: 22-9 (ligand)
chain: AHYNTEILKSIDNEWRKTQCMPREVCIDVGKEFGVATNTFFKPPCVSVYRCGGCCNDEGLECVPTEESNITMQIMRITVPLSQGPKPVTISFLQHNKCECRPKKD
- binding result (VEGFR-1-Fc): no binding
- binding result (VEGFR-2-Fc): no binding
- binding result (VEGFR-3-Fc): no binding

B12: 32-9 (ligand)
chain: GQNHHEVVKSIDNEWRKTQCMPIETLVDIFQEFGVATNTFFKPPCVSVYRCGGCCNDEGLECVPTEESNITMQIMRITVPLSQGPKPVTISFLQHNKCECRPKKD
- binding result (VEGFR-1-Fc): no binding
- binding result (VEGFR-2-Fc): no binding
- binding result (VEGFR-3-Fc): binds

B13: 24-9 (ligand)
chain: AHYNTEILKSIDNEWRKTQCMPREVCIDVGKEFGVATNTFFKPSCVPLMRCGGCCNDEGLECVPTEESNITMQIMRITVPLSQGPKPVTISFLQHNKCECRPKKD
- binding result (VEGFR-1-Fc): no binding
- binding result (VEGFR-2-Fc): no binding
- binding result (VEGFR-3-Fc): no binding

B14: 72-13 (ligand)
chain: GQNHHEVVKSIDNEWRKTQCMPREVCIDVGKEFGVATNTFFKPPCVSVYRCGGCCNDEGLECVPTEESNITMQIMRITVPLSQGPKPVTISFANHTSCRCMSKLD
- binding result (VEGFR-1-Fc): no binding
- binding result (VEGFR-2-Fc): no binding
- binding result (VEGFR-3-Fc): no binding

B15: 74-13 (ligand)
chain: GQNHHEVVKSIDNEWRKTQCMPREVCIDVGKEFGVATNTFFKPSCVPLMRCGGCCNDEGLECVPTEESNITMQIMRITVPLSQGPKPVTISFANHTSCRCMSKLD
- binding result (VEGFR-1-Fc): no binding
- binding result (VEGFR-2-Fc): no binding
- binding result (VEGFR-3-Fc): no binding

B16: 22-11 (ligand)
chain: AHYNTEILKSIDNEWRKTQCMPREVCIDVGKEFGVATNTFFKPPCVSVYRCGGCCNSEGLQCVPTEESNITMQIMRITVPLSQGPKPVTISFLQHNKCECRPKKD
- binding result (VEGFR-1-Fc): no binding
- binding result (VEGFR-2-Fc): no binding
- binding result (VEGFR-3-Fc): no binding

B17: 34-9 (ligand)
chain: GQNHHEVVKSIDNEWRKTQCMPIETLVDIFQEFGVATNTFFKPSCVPLMRCGGCCNDEGLECVPTEESNITMQIMRITVPLSQGPKPVTISFLQHNKCECRPKKD
- binding result (VEGFR-1-Fc): no binding
- binding result (VEGFR-2-Fc): no binding
- binding result (VEGFR-3-Fc): no binding

B18: 71-9 (ligand)
chain: GQNHHEVVKSIDNEWRKTQCMPREVCIDVGKEYPDEIEYIFKPSCVPLMRCGGCCNDEGLECVPTEESNITMQIMRITVPLSQGPKPVTISFLQHNKCECRPKKD
- binding result (VEGFR-1-Fc): no binding
- binding result (VEGFR-2-Fc): no binding
- binding result (VEGFR-3-Fc): no binding

B19: 53-3 (ligand)
chain: AHYNTEILKSIDNEWRKTQCMPIETLVDIFQEYPDEIEYIFKPPCVSVYRCGGCCNSEGLQCVPTEESNITMQIMRIKPHQGQHIGEMSFLQHNKCECRPKKDLV
notes: clone entry
- binding result (VEGFR-1-Fc): binds
- binding result (VEGFR-2-Fc): binds
- binding result (VEGFR-3-Fc): binds

B20: 52-9 (ligand)
chain: AHYNTEILKSIDNEWRKTQCMPIETLVDIFQEFGVATNTFFKPPCVSVYRCGGCCNDEGLECVPTEESNITMQIMRITVPLSQGPKPVTISFLQHNKCECRPKKD
- binding result (VEGFR-1-Fc): no binding
- binding result (VEGFR-2-Fc): no binding
- binding result (VEGFR-3-Fc): binds

B21: 52-11 (ligand)
chain: AHYNTEILKSIDNEWRKTQCMPIETLVDIFQEFGVATNTFFKPPCVSVYRCGGCCNSEGLQCVPTEESNITMQIMRITVPLSQGPKPVTISFLQHNKCECRPKKD
- binding result (VEGFR-1-Fc): no binding
- binding result (VEGFR-2-Fc): no binding
- binding result (VEGFR-3-Fc): binds

B22: 83-13 (ligand)
chain: AHYNTEILKFMDVYQRSYCHPIETLVDIFQEYPDEIEYIFKPPCVSVYRCGGCCNDEGLECVPTEESNITMQIMRITVPLSQGPKPVTISFANHTSCRCMSKLD
- binding result (VEGFR-1-Fc): binds
- binding result (VEGFR-2-Fc): no binding
- binding result (VEGFR-3-Fc): no binding

B23: 83-15 (ligand)
chain: AHYNTEILKFMDVYQRSYCHPIETLVDIFQEYPDEIEYIFKPPCVSVYRCGGCCNSEGLQCVPTEESNITMQIMRITVPLSQGPKPVTISFANHTSCRCMSKLDL
notes: clone entry
- binding result (VEGFR-1-Fc): binds
- binding result (VEGFR-2-Fc): binds
- binding result (VEGFR-3-Fc): no binding

B24: 32-15 (ligand)
chain: GQNHHEVVKSIDNEWRKTQCMPIETLVDIFQEFGVATNTFFKPPCVSVYRCGGCCNSEGLQCVPTEESNITMQIMRITVPLSQGPKPVTISFANHTSCRCMSKLD
- binding result (VEGFR-1-Fc): no binding
- binding result (VEGFR-2-Fc): no binding
- binding result (VEGFR-3-Fc): binds

B25: 52-15 (ligand)
chain: AHYNTEILKSIDNEWRKTQCMPIETLVDIFQEFGVATNTFFKPPCVSVYRCGGCCNSEGLQCVPTEESNITMQIMRITVPLSQGPKPVTISFANHTSCRCMSKLD
notes: clone entry
- binding result (VEGFR-1-Fc): no binding
- binding result (VEGFR-2-Fc): no binding
- binding result (VEGFR-3-Fc): binds
